The supplement of paper PMC12455559

Assay: purified protein yield per well (BCA); higher = higher soluble expression
Summary of the method: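 Candidate enzymes were made in 2 mL autoinduction cultures of E. coli C41(DE3) with 100 µg/mL kanamycin, at 37 °C for 2 h and then 18 °C for 40 h, and purified with Ni-charged magnetic beads and SUMO protease cleavage. The Pierce Rapid Gold BCA kit gave purified protein yield per well. Values lower than 25 ug (0.1 mg/mL) are below the detection threshold.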

| Sequence | purified protein yield per well |
| --- | --- |
| ADNPYERGPDPTEQLIESARGPFATAQTRVSSLSVTGFGGGVIYYPTDTSQGTFGAVAISPGFTADWTSLDWLGPRLASHGFVVIGIDTITRLDQPDSRGRQLLAALDYLTQRSSVRSRVDASRLAVAGHSMGGGGSLEAAKSRTSLKAAIPLAPWNLDKTWPEVVTPTMIFGGELDTVAPVSTHAIPFYNSLTNAREKAYLEIDNGSHFFPNVSNTLVAKYMISWLKRYVDNDTRYEQFLCPVPDDRGLSDSRGTCPGS [TEP135] | < 25 µg |
| DSTSDQHGPDPTKASIEAERGPFDVARVTVPRAGASGFGGGTIYYPSSTEEGKFGAVAIAPGFTASQSSMAWFGPRLASQGFVVFTIDTVTTSDQPDMRGDELRAALRYLTGSSKVKDRIDADRLAVMGHSMGGGGTLEAAKDDPALRAAIPLTPWDLNKNFSRVKTPTMIIGGQSDTIAPVASHSEPFYRSLPDTASKAYLELRGASHFAPNMPNTTIAEYSISWLKRFVDDDRRYDQFLCPAPGASVQISQYLSTCPY [TEP166] | < 25 µg |
| QTNPYARGPNPTRDSLEASRGPFAFSSFTVSRPSGYAGGTVYYPTNAGGTVGAIAVVPGFSARQSSINWWGPRLASHGFVVITIDTNSSFDQPPSRSRQQLAALDQVATLARTSGSPIYNKVDTTRMGVMGSSMGGGGSMISAQNRPSLKAAIPQSPSVSSTNFSSVVVPTLIFACENDTVPPGGSQAVAIYNSMMLNPKQLLEIAGGSPFCGNSN [ESM182] | < 25 µg |
| VQSESPGKKYTSGPYGYTTTSLTGYSAGATIYIPRTGTPPYSGIVFMQPYTGTQAMDAAWGPFFASHGIIYVNCDSMTTLDTVDSRATQQMNAVSILKSSSKVKGKLDTSRVGVMGWSMGGGASWINSSKSGVKTAMTLAGHNLTAVSTASKGYSTRCPTAIFSGSLDTTYLGGLGQSEGVYAAIPRSVSKLHYKVATAGHMVWGGPTTASVNVGAIGLAFQKTYLDGDTRWKAYITRPADAAIWTTNLR [TEP005] | < 25 µg |
| AGNPYQRGPDPTVASVAATSGPFATAQLSVPPGNGFNGGMIYYPTDTSLGTWGAVAIVPGYTALFANEEAWMGPWLASFGFVVIGVETNSRTDYDVARGTELLAALDYLTQQSPVRDRVDATRLGVIGHSMGGGGVVYATEHRPSLKSAVALAPFSPSQTMATDTVPTMVMGGQNDTVVTPSYLSGLYATMPATTQSDFLQIAGADHVYYTHPNSVEMRILIPWIKTFIDNDTRYTQFLCPALADPTGVSIYQSKCPYVPGGSTPPPPTGGPVHAVGAGKCLDVPNSSTTGGTQLQIYTCDGQSNQTFTHTSTGALSVTDNGTTMCLDANGKGTTSGTKVIIWSCNGQTNQQWNVNSNGTITGVQSGLCLDVSGASTANGALVQLWTCNGQSNQQWKLG [TEP015] | < 25 µg |
| FGAVAISPGFTAAWSSLSWLGPRLASHGFVVIGIETNSRLDQPASRGDQLLAALDWAVNQSPAASRIDRNRLAVAGHSMGGGGTLEAAKDRPSLKAAIPIAPWNLDKTWPEIRTPTLILGGENDLIAPVASHAEPFYNSIPASAEKAYLELDNESHFFPQFSNTIMAKYMISWLKRFVDNDTRYDQFLCP [TEP090] | < 25 µg |
| RPRDSAPANPYQRGPDPTVAMIESSTGPFATTSASVPAGHGFNGGTVYYPTDTSLGTWGALAIVPGYSALFANEEAWMGPWLSSFGFVVLGVETNSRTDSADARGTELLAALDYLTTQSPVRDRVDPNRLAVLGHSAGGAGAMLAAENRPSLKAAIGLAPGSPVGNLSLATDKVPTMVLGGQNDTVVTPSYLSGLYATMPASTQSVFAQIAGADHVYYTHPNNVEMKLLIPWLKTFLDSDTRHPPFLCPAPPDPRSISIYTPKCPYVPGGGTPPGGGNTGPLHAVGAAKCLAAPPAGAAGTQVTIGGCDGRAGQTWTRTAAAELTVTPAGTPLCLDASGQGTSPGTKVIVWSCNGQANQQWNLNADGSVTAARSGLCLDVTGASTAEGAPVELWSCNGGSNQRWSLG [TEP095] | < 25 µg |
| ADNPYQRGPDPTVASVAATRGTFATAQLTVPPGNGFGGGYIYYPTDTSHGTWGAVAIVPGYSALFANEEAWMGPWLASFGFVVIGVETNTRSDGADARATELLAALDYLTQQSAVRDRVDAGRLAVMGHSAGGAGTILAAERRPALKAAVGLAPGTPGSLSLATDKVPMMVIGGQTDPTVTPAYLDNLYAGMPTTTPSDFVQIAGADHLFFTRANNTEMKVLIPWLKIFLDNDTRYTQFLCPSLADPSGISLYRSKCPYLPPGTTSPSPSSSVTPSSPSSPSSPSTGCTAGYRTVGQWPGGFQGEVTVTAGSAAISGWTVNWTLGSGQSVTQLWNGTLTTSGSAVTVRNASYSGSVPAGGSVVFGYLADGTPSTPLLTCTGQ [ESM032] | < 25 µg |
| ADPGTGGGNGGGNTCQEDCGFERGPDPSVSMLEARNGPFSVRTSRVSGLVSGFGGGTIHYPTGQSGTMGAIVVIPGFVSAESSIDWWGSQLASHGFVVMTIDTNTGFDQPPSRARQINAALDYLVDQNRASGSPVNGMIDTSRLGVIGWSMGGGGTLRVATEGRIKAAIPLAPWDTSSRQFRSVQAPTLIFACGSDLIAPVRSHASPFYNALPNGLDKAYFEISRGSHYCANGGNTNNSRLSRLGVSWMKLHLDQDQRYNQFICGPRHESDRSISEYRGNC [ESM181] | < 25 µg |
| QTNPYERGPAPTTASLEASRGPFSISSFTVSRPSGYGAGTVYYPTNAGGTVGAIAIVPGFLARQSSINWWGPRLASHGFVVITIDTNSTLDQPASRSRQQLAALDQVAALARTSSSPIYNRVDTTRMGVMGWSMGGGGTLISAQNRPSIKAAAPQAPYNSSTNFSSVTVPTLIFACENDTVAPVNRHASPFYSSMSRNSKQYLEINGGSHSCANSGNSNQPLIGKKGVAWMKRFMDNDTRYTPFACANPNSTRVSEFRTANCS [ESM073] | < 25 µg |
| QTSAPTSASLNATAGPLSVSTASVLVPVGFGGGTIYYPTVAGQYGVIAISPGFTATQSSIAWLGRRIATHGFVVITLNTNTTLDQPDSRATQLLAALRYVTNSSGTAVRSRIDATRLAVAGHSMGGGGSLIAARDNPTLKASYPLTPWNISTNFSTVRVPTLIIGADGDTIAPVASHARPFYASLPSTTFKAYGELNNATHFTPNSTSTPIGRYGVAWFKRFLDGDTRYSPFLCGAQHTAYATALVFDRYNQNCPY [ESM141] | < 25 µg |
| GGGGGGGGGGNSGDLPAPNPCTANCGFEIGPNPSLSFLRNGPGPLPVSTTTVPRSVDGFGGGTIYYPSNVSREMAAITISPGFTARQGGVAWWGSALASHGFVVMTIDTNSRFDQPASRGRQLDSALSYLISESDRRNSPISGLVDESRLATMGHSMGGGGSLHSASRNRISAAMPLAPWNQSGSGAFNNINVPTMILACESDTTARVGTHAIPFYNRIPNSTDKVYLEINNGNHSCSTGRSGNDRALLRTYGVSWMKRFLDKDGRYNQFLCGPNHTANSSISDFRDTCVF [DP063] | < 25 µg |
| CSGSTPTAPAAPAPKATAAPNDRPAPTAQVPRSFERGPAPSEKSVTAKRGPFAFEKIEVPAGSGPGFNKGTIYAPTDTSRGTFGAVVMSPGFASPHTWIDWYGPRLASQGFVVMMLETNTLFDVPLLRGRQIVAALDYLTARSVVRGRVDPSRTAVMGHSMGGGGTLEAARQRPGLKAAVPLAPWNPDYNWGGVVVPTMIIGAQRDVIAPTALMSEAYYNRLTAAPEKAYLVLRGAGHLTFMSPNATIAKYVISWMKRFVDNDSRYDRFLCPPPKPRGLLTVYRGTCPTG [DP037] | < 25 µg |
| QTTAPTSASLNATAGPLSVSTASVSLPRGFGGGTIYYPTTQARYGVIAISPGFTATETSIAWLGRRIATHGFVVITLNTLTTLDQPASRANQLMAALSYVVNSSTSAVKARIDTTRLAVAGHSMGGGGALIAARDNPTLKASYPLTPWNSSTSFSTVRVPTMIIGADGDTIAPVAAHARPFYASLPGATTKAYGELNGGTHFSPNSTNTPIGRYGVAWMKRFVDGDTRYSTFLCGTEHTRYASALVFDRYNQNCPY [ESM124] | < 25 µg |
| QSTTPTSSALNATAGPLAVSTSTVTLASGFGGGTIYYPTTAGSYGLIALCPGFTATETSLAWLARRLASWGFVVVNMNTTTTMDQPASRATQLMAALKYALNSSSSAVRARIDPSRLAVAGHSMGGGGTLIAARDNPTLKAGYPLTPWNSSTNFSGVTVPTMIIGSDGDTVAPVAQHARPFYASLPAATFKAYGELNNATHFTPNSTSTPIGRYGVAWMKRFLDGDTRYSTFLCGSEHAAYATSLVFDRYNQNCPY [ESM187] | < 25 µg |
